This assay addresses T1, DnaK–BHQ10 (E. coli chaperone DnaK labelled with Black Hole Quencher 10) (E. coli, UniProt P0A6Y8 1-638, BHQ10 (from BHQ10-NHS-ester), labelling ratio 1 : 9 DnaK : BHQ10).
T1 construct: chaperone DnaK of Escherichia coli; also called bacterial DnaK; quencher-labelled bacterial DnaK probe; source: produced by Michael Zahn [50]; dialysed and labelled with BHQ10-NHS-ester
In words: FRET or BRET; FRET-based quenching assay in solution: fluorescein-modified peptide (50 μl, 1.3 nmol/l) mixed with a serial dilution of DnaK–BHQ10 (50 μl, 0.8–13 000 nmol/l, 1 : 4 series) in modifying buffer (20 mmol/l Na2HPO4, 20 mmol/l KH2PO4, 5 mmol/l MgCl2, 150 mmol/l KCl, pH 7.4), black 384-well plate, 2 h; Kd by non-linear regression (dose-response logistical function, SlideWrite) of quenching against DnaK …. To be noted: both partners purified.

The term Kd denotes the constant that tells how readily two partners part at equilibrium.

Cf = 5(6)-carboxyfluorescein

T1 sequence (P0A6Y8 whole entry): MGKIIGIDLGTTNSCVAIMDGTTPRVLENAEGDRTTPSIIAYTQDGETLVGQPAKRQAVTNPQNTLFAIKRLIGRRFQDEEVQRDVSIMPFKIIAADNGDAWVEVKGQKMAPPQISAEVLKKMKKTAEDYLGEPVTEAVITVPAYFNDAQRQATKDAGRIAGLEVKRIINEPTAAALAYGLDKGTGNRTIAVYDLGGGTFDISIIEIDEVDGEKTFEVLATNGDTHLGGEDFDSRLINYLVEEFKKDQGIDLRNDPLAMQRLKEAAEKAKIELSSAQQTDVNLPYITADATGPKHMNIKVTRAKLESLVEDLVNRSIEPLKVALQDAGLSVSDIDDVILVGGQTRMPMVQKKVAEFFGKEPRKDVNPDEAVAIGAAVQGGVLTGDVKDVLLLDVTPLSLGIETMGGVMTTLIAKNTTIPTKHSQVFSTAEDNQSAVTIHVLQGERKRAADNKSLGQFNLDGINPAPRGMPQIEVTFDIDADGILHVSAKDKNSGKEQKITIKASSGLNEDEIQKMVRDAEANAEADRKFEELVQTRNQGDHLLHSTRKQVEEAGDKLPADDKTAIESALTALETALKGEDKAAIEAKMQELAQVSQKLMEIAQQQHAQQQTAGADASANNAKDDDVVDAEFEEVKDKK

B1: Metalnikowin IIA (P2), Palomena prasina, Cf-VDKPDYRPRPWPRPN-NH2 (peptide)
peptide: Cf-VDKPDYRPRPWPRPN-NH2
notes: metalnikowin IIA of Palomena prasina; source: synthetic peptide (PANATecs, Tübingen), purified to >95%
B1: the Kd was > 5 µM.

B2: Abaecin (P3), Bombus pascuorum, Cf-[residues removed]-NH2 (peptide)
peptide: Cf-FVPYNPPRPGQSKPFPSFPGHGPFNPKIQWPYPLPNPGH-NH2
notes: abaecin of Bombus pascuorum, 39 residues; also called B. pascuorum abaecin; source: synthetic peptide (PANATecs, Tübingen), purified to >95%
With B2, the Kd turned out to be 0.19 ± 0.03 µM.

B3: Metchnikowin-2 (P5), Drosophila melanogaster, Cf-[residues removed]-NH2 (peptide)
peptide: Cf-HRRQGPIFDTRPSPFNPNQPRPGPIY-NH2
notes: metchnikowin 2 of Drosophila melanogaster; source: synthetic peptide (PANATecs, Tübingen), purified to >95%
B3: the Kd is > 5 µM.

B4: Metchnikowin-1 (P4), Drosophila melanogaster, Cf-[residues removed]-NH2 (peptide)
peptide: Cf-HRHQGPIFDTRPSPFNPNQPRPGPIY-NH2
notes: metchnikowin 1 of Drosophila melanogaster; source: synthetic peptide (PANATecs, Tübingen), purified to >95%
As to B4, the Kd was > 5 µM.

B5: Metalnikowin I (P1), Palomena prasina, Cf-VDKPDYRPRPRPPNM-NH2 (peptide)
peptide: Cf-VDKPDYRPRPRPPNM-NH2
notes: metalnikowin I of Palomena prasina; source: synthetic peptide (PANATecs, Tübingen), purified to >95%
For B5, the Kd is > 5 µM.
